Measured values: patent US20240336672A1 (INSTITUT PASTEUR, published 2024)

Assays:
[1] = target: T1, CoV-NL63 Spike ectodomain (NL63-CoV, UniProt Q6Q1S2 19-1291); test: ELISA, coated spike ectodomain
T1 sequence: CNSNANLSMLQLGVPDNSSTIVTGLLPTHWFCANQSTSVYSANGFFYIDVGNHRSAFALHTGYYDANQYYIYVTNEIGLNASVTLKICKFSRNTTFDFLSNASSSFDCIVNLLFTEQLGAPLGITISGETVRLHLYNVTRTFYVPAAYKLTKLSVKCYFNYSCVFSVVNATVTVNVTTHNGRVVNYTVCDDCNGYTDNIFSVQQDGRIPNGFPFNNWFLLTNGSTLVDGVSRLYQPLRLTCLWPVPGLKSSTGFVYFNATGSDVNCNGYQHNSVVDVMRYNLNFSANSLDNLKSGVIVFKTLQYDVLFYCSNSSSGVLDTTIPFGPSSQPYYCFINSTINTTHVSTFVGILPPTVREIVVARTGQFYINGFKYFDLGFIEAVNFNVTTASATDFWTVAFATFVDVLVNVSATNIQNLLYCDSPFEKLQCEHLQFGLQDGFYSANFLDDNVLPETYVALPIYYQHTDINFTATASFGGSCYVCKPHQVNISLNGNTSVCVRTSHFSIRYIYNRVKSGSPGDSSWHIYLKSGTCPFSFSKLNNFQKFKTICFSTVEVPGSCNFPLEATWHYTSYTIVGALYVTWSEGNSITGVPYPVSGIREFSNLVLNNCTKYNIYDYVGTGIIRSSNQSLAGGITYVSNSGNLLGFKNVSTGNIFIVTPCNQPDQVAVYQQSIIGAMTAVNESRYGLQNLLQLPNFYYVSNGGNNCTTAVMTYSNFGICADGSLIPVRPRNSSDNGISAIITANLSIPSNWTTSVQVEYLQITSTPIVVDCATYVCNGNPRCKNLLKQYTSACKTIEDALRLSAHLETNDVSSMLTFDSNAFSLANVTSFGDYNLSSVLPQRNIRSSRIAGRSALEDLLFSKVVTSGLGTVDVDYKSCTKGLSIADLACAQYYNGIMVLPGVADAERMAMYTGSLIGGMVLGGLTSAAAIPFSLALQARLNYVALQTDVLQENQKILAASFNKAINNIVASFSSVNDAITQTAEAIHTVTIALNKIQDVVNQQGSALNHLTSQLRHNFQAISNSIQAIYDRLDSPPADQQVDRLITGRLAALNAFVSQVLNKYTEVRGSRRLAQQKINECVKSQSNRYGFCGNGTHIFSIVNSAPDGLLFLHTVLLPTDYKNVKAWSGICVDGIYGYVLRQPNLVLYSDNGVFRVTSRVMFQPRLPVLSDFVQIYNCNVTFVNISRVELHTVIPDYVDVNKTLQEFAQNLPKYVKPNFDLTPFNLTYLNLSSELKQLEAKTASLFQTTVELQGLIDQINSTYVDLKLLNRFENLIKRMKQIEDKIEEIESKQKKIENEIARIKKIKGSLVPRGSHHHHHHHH

[2] = target: T2, CoV-HKU1 Spike ectodomain (HKU1-CoV, UniProt Q0ZME7 14-1276); test: ELISA, coated spike ectodomain
T2 chain: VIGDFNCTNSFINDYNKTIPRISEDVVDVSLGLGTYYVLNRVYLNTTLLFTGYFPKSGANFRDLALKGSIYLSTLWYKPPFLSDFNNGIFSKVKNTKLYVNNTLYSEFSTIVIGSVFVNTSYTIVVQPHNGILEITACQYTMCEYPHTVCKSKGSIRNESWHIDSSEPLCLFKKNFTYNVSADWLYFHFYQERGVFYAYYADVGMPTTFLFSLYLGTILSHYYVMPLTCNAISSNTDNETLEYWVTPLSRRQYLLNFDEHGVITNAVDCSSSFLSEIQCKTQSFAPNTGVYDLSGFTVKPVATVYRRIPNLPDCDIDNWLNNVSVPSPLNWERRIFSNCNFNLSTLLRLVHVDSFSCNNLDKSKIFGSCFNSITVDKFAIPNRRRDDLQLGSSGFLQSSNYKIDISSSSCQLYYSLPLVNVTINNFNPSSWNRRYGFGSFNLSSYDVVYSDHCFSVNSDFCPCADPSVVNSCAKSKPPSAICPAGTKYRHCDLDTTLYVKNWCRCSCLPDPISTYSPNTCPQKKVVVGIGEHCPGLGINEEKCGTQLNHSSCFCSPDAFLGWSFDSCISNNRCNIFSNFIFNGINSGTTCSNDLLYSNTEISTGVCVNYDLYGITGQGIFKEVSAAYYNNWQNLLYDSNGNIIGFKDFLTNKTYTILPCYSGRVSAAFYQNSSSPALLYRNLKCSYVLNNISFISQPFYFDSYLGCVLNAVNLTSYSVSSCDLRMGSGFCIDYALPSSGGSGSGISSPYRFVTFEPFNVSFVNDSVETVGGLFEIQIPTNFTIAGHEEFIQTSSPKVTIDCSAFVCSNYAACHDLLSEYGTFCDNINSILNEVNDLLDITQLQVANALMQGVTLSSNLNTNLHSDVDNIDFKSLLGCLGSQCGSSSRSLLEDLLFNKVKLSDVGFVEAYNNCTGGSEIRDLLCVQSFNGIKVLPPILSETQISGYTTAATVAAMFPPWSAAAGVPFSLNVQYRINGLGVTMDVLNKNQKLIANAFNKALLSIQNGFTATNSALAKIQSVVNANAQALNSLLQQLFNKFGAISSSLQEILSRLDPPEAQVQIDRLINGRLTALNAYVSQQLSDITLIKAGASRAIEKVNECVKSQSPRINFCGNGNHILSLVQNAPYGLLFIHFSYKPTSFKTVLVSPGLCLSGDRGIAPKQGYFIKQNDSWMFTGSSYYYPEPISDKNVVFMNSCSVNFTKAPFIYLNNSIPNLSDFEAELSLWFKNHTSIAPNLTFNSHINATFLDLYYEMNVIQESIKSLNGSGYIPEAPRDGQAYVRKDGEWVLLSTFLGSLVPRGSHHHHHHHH

Binder | binding result [1] | binding result [2]
Cv2.1169 (recombinant human IgG1) (antibody, also called Cv2.1169 IgG) heavy: QVQLVQSGPEVKKPGTSVKVSCKASGFTFTTSAVQWVRQARGQRLEWIGWIVVGSGNTNYAQKFQERVTITRDMSTTTAYMELSSLRSEDTAVYYCAAPYCSGGTCLDGFDIWGQGTMVTVSSASTKGPSVFPLAPSSKSTSGGTAALGCLVKDYFPEPVTVSWNSGALTSGVHTFPAVLQSSGLYSLSSVVTVPSSSLGTQTYICNVNHKPSNTKVDKKVEPKSCDKTHTCPPCPAPELLGGPSVFLFPPKPKDTLMISRTPEVTCVVVDVSHEDPEVKFNWYVDGVEVHNAKTKPREEQYNSTYRVVSVLTVLHQDWLNGKEYKCKVSNKALPAPIEKTISKAKQPREPQVYTLPPSRDELTKNQVSLTCLVKGFYPSDIAVEWESNGQPENNYKTTPPVLDSDGSFFLYSKLTVDKSRWQQGNVFSCSVMHEALHNHYTQKSLSLSPGK light: not shown | no binding | no binding
Cv2.3194 (recombinant human IgG1) (antibody, V domains shown) VH: EVQLVESGGGLIQPGGSLRLSCAASGITVTSNYMSWVRQAPGKGLEWVSVIYPGGSTFYADSVKGRFTISRDNSKNTLYLQMNSLRAEDTAVYYCARDLVVYGMDVWGQGTTVTVSS VL: EIVLTQSPGTLSLSPGERATLSCRASQSVSSSYLAWYQQKPGQAPRLLIYGASSRATGIPGRFSGSGSGTDFTLTISRLEPEDFAIYYCQQGVTFGGGTKVEIKR | no binding | no binding
Cv2.3235 (recombinant human IgG1) (antibody, V domains shown) VH: EVQLVESGGGLIQPGGSLRLSCAASGFTVSRNYMSWVRQAPGKGLEWVSVIYSGGSTFYADSVKGRFTISRDNSKNTLYLQMNSLRAEDTAVYYCARDGDYYGMDVWGQGTTVTVSS VL: DIQMTQSPSFLSASVGDRVTITCRASQGISSFLAWYQQKPGKAPKLLIYGASTLQSGVTSRFSGSGSGTEFTLTISSLQPEDFATYYCQRLDSYPPITFGQGTRLEIKR | no binding | no binding
Cv2.5213 (recombinant human IgG1) (antibody, V domains shown) VH: EVQLVESGGGLIQPGGSLRLSCAASGFTVSSNYMSWVRQAPGKGLEWVSLIYSGGSTYYADSVKGRFTISRDNSKNTLYLQMNSLRAEDTAVYYCARDLNYYGMDVWGQGATVTVSS VL: DIQMTQSPSSLSASVGDRVTITCRASQGISSYLAWYQQKPGKAPKLLIYAASTLQSGVPSRFSGSGSGTDFTLTISSLQPEDFATYYCQQLDSYSPFTFGPGTKVDIKR | no binding | no binding
Cv2.1353 (recombinant human IgG1) (antibody, V domains shown) VH: EVQLVESGGGLVQPGGSLRLSCAASGVTVSSNYMNWVRQAPGKGLEWVSVIYSGGSTFYADSVKGRFIISRDNSKNTLYLQMNSLKTEDTAVYYCARDLGPMGFDIWGQGTMVTVSS VL: DIQMTQSPSFLSASVGDRVTITCRASQGISSYLAWYQQKPGKAPKLLIYAASTLQSGVPSRFSGSGSGTEFTLTISSLQPEDFATYYCQQLNSDPPVTFGPGTKVDIKR | no binding | no binding
